Measurements as given in US20210275545A1 (YEDA RESEARCH AND DEVELOPMENT, published 2021).

B1: Gluc1-FLI1 (full-length FLI1 fused downstream of Gluc1) (other, UniProt Q01543 1-452, looked up)
chain: MDGTIKEALSVVSDDQSLFDSAYGAAAHLPKADMTASGSPDYGQPHKINPLPPQQEWINQPVRVNVKREYDHMNGSRESPVDCSVSKCSKLVGGGESNPMNYNSYMDEKNGPPPPNMTTNERRVIVPADPTLWTQEHVRQWLEWAIKEYSLMEIDTSFFQNMDGKELCKMNKEDFLRATTLYNTEVLLSHLSYLRESSLLAYNTTSHTDQSSRLSVKEDPSYDSVRRGAWGNNMNSGLNKSPPLGGAQTISKNTEQRPQPDPYQILGPTSSRLANPGSGQIQLWQFLLELLSDSANASCITWEGTNGEFKMTDPDEVARRWGERKSKPNMNYDKLSRALRYYYDKNIMTKVHGKRYAYKFDFHGIAQALQPHPTESSMYKYPSDISYMPSYHAHQQKVNFVPPHPSSMPVTSSSFFGAASQYWTSPTGGIYPNPNVPRHPNTHVPSHLGSYY
notes: range 1-93;domain: full length; also called FiI1; not shown: Gaussia luciferase (Gluc), amino-terminal fragment Gluc1, amino acids 1-93
B2: Gluc1-ETV2 (other, UniProt O00321 1-342, looked up)
chain: MDLWNWDEASPQEVPPGNKLAGLEGAKLGFCFPDLALQGDTPTATAETCWKGTSSSLASFPQLDWGSALLHPEVPWGAEPDSQALPWSGDWTDMACTAWDSWSGASQTLGPAPLGPGPIPAAGSEGAAGQNCVPVAGEATSWSRAQAAGSNTSWDCSVGPDGDTYWGSGLGGEPRTDCTISWGGPAGPDCTTSWNPGLHAGGTTSLKRYQSSALTVCSEPSPQSDRASLARCPKTNHRGPIQLWQFLLELLHDGARSSCIRWTGNSREFQLCDPKEVARLWGERKRKPGMNYEKLSRGLRYYYRRDIVRKSGGRKYTYRFGGRVPSLAYPDCAGGGRGAETQ
notes: not shown: Gaussia luciferase (Gluc), amino-terminal fragment Gluc1, amino acids 1-93
B3: ERα-Gluc1 (estrogen receptor alpha fused to Gluc1) (receptor, UniProt P03372 1-595, looked up)
chain: MTMTLHTKASGMALLHQIQGNELEPLNRPQLKIPLERPLGEVYLDSSKPAVYNYPEGAAYEFNAAAAANAQVYGQTGLPYGPGSEAAAFGSNGLGGFPPLNSVSPSPLMLLHPPPQLSPFLQPHGQQVPYYLENEPSGYTVREAGPPAFYRPNSDNRRQGGRERLASTNDKGSMAMESAKETRYCAVCNDYASGYHYGVWSCEGCKAFFKRSIQGHNDYMCPATNQCTIDKNRRKSCQACRLRKCYEVGMMKGGIRKDRRGGRMLKHKRQRDDGEGRGEVGSAGDMRAANLWPSPLMIKRSKKNSLALSLTADQMVSALLDAEPPILYSEYDPTRPFSEASMMGLLTNLADRELVHMINWAKRVPGFVDLTLHDQVHLLECAWLEILMIGLVWRSMEHPGKLLFAPNLLLDRNQGKCVEGMVEIFDMLLATSSRFRMMNLQGEEFVCLKSIILLNSGVYTFLSSTLKSLEEKDHIHRVLDKITDTLIHLMAKAGLTLQQQHQRLAQLLLILSHIRHMSNKGMEHLYSMKCKNVVPLYDLLLEMLDAHRLHAPTSRGGASVEETDQSHLATAGSTSSHSLQKYYITGEAEGFPATV
notes: as for B2
B4: Gluc1-ELF3 (other, UniProt P78545 1-371, looked up)
chain: MAATCEISNIFSNYFSAMYSSEDSTLASVPPAATFGADDLVLTLSNPQMSLEGTEKASWLGEQPQFWSKTQVLDWISYQVEKNKYDASAIDFSRCDMDGATLCNCALEELRLVFGPLGDQLHAQLRDLTSSSSDELSWIIELLEKDGMAFQEALDPGPFDQGSPFAQELLDDGQQASPYHPGSCGAGAPSPGSSDVSTAGTGASRSSHSSDSGGSDVDLDPTDGKLFPSDGFRDCKKGDPKHGKRKRGRPRKLSKEYWDCLEGKKSKHAPRGTHLWEFIRDILIHPELNEGLMKWENRHEGVFKFLRSEAVAQLWGQKKKNSNMTYEKLSRAMRYYYKREILERVDGRRLVYKFGKNSSGWKEEEVLQSRN
notes: as for B2
B5: Gluc1-ETV4 (other, UniProt P43268 1-484, looked up)
chain: MERRMKAGYLDQQVPYTFSSKSPGNGSLREALIGPLGKLMDPGSLPPLDSEDLFQDLSHFQETWLAEAQVPDSDEQFVPDFHSENLAFHSPTTRIKKEPQSPRTDPALSCSRKPPLPYHHGEQCLYSSAYDPPRQIAIKSPAPGALGQSPLQPFPRAEQRNFLRSSGTSQPHPGHGYLGEHSSVFQQPLDICHSFTSQGGGREPLPAPYQHQLSEPCPPYPQQSFKQEYHDPLYEQAGQPAVDQGGVNGHRYPGAGVVIKQEQTDFAYDSDVTGCASMYLHTEGFSGPSPGDGAMGYGYEKPLRPFPDDVCVVPEKFEGDIKQEGVGAFREGPPYQRRGALQLWQFLVALLDDPTNAHFIAWTGRGMEFKLIEPEEVARLWGIQKNRPAMNYDKLSRSLRYYYEKGIMQKVAGERYVYKFVCEPEALFSLAFPDNQRPALKAEFDRPVSEEDTVPLSHLDESPAYLPELAGPAQPFGPKGGYSY
notes: as for B2
B6: Gluc1-ERG (other, UniProt P11308-3 1-486, looked up)
chain: MIQTVPDPAAHIKEALSVVSEDQSLFECAYGTPHLAKTEMTASSSSDYGQTSKMSPRVPQQDWLSQPPARVTIKMECNPSQVNGSRNSPDECSVAKGGKMVGSPDTVGMNYGSYMEEKHMPPPNMTTNERRVIVPADPTLWSTDHVRQWLEWAVKEYGLPDVNILLFQNIDGKELCKMTKDDFQRLTPSYNADILLSHLHYLRETPLPHLTSDDVDKALQNSPRLMHARNTGGAAFIFPNTSVYPEATQRITTRPDLPYEPPRRSAWTGHGHPTPQSKAAQPSPSTVPKTEDQRPQLDPYQILGPTSSRLANPGSGQIQLWQFLLELLSDSSNSSCITWEGTNGEFKMTDPDEVARRWGERKSKPNMNYDKLSRALRYYYDKNIMTKVHGKRYAYKFDFHGIAQALQPHPPESSLYKYPSDLPYMGSYHAHPQKMNFVAPHPPALPVTSSSFFAAPNPYWNSPTGGIYPNTRLPTSHMPSHLGTYY
notes: as for B2

How the values were obtained:
[1] = biological target: T1, ERα-Gluc2 (estrogen receptor alpha fused to Gluc2) (UniProt P03372 1-595); assay: PCA in HEK-293T cells, estradiol 10 nM 60 min (FIG. 8C)
T1 construct: not shown: Gaussia luciferase (Gluc), carboxyl-terminal fragment Gluc2, amino acids 94-169
T1 sequence (looked up): B3 chain
Protocol: (§1) (A) HEK-293T cells (6×10³) were seeded in 96-well plates. […] (B and C) HEK-293T cells (6×10³) were seeded in 96-well plates. […] Cells were then lysed and luminescence was determined.

[2] = biological target: T2, MR-Gluc2 (mineralocorticoid receptor fused to Gluc2) (UniProt P08235 1-984); assay: PCA in HEK-293T cells, DEX 1 µM 60 min (FIG. 8B)
T2 construct: not shown: Gaussia luciferase (Gluc), carboxyl-terminal fragment Gluc2, amino acids 94-169
T2 sequence (looked up): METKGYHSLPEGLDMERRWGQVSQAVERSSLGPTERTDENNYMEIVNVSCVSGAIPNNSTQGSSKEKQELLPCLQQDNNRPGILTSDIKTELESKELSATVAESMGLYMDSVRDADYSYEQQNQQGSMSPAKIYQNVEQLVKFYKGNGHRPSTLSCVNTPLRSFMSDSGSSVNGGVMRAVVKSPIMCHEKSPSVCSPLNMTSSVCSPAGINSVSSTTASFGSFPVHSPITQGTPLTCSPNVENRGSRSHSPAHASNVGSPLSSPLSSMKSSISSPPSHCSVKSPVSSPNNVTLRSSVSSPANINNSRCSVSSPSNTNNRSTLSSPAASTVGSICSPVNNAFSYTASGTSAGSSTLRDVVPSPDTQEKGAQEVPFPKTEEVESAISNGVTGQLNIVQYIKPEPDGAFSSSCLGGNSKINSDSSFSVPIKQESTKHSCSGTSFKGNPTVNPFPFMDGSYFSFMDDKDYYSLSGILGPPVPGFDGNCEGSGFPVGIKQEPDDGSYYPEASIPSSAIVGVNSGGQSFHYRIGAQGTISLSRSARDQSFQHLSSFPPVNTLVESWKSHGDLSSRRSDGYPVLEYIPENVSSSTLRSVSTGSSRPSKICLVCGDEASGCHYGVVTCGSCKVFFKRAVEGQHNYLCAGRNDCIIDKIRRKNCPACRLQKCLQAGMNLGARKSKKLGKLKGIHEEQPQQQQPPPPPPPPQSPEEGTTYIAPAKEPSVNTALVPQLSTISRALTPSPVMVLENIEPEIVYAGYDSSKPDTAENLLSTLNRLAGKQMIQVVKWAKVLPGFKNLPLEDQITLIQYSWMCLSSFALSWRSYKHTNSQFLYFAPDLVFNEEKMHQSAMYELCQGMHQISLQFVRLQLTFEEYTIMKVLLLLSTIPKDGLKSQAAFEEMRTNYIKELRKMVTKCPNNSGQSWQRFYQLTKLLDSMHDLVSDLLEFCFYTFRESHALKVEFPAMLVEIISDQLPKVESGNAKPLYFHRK
Protocol: as §1

[3] = biological target: T3, GR-Gluc2 (full-length glucocorticoid receptor fused at its carboxyl terminus to Gluc2) (human, UniProt P04150 1-777); assay: PCA in HEK-293T cells, DEX 1 µM or estradiol 10 nM 60 min (FIG. 8D)
T3 construct: domain: full length;range 94-169; Expressed in HEK-293/HEK-293T cells by transfection; also called Gluc2-GR; not shown: Gaussia luciferase (Gluc), carboxyl-terminal fragment Gluc2, amino acids 94-169
T3 sequence (looked up): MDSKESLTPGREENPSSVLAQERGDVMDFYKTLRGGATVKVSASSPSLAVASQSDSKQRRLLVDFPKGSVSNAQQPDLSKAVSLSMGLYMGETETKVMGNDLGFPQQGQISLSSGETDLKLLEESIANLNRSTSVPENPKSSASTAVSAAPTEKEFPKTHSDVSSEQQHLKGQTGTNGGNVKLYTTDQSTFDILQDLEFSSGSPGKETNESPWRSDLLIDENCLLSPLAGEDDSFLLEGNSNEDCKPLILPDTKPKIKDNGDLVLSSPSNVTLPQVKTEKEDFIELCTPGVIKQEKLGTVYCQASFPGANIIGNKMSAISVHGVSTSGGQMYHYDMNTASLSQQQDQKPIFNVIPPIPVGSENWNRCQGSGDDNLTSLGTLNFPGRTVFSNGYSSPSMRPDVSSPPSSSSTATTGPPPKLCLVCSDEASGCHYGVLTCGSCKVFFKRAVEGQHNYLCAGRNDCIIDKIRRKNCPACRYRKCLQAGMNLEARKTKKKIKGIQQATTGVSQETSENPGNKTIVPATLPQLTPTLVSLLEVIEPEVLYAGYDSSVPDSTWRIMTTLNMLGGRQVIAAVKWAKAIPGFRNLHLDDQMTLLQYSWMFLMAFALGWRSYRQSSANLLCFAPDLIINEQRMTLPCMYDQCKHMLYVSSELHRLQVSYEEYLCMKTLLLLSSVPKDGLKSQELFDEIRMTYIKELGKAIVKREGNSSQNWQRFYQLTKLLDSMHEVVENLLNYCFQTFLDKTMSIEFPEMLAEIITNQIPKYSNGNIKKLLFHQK
Protocol: as §1

[4] = biological target: T1, ERα-Gluc2 (estrogen receptor alpha …); assay: PCA in HEK-293T cells, vehicle against estradiol 10 nM 60 min (FIG. 8C)
Protocol: as §1

[5] = biological target: T3, GR-Gluc2 (full-length glucocorticoid …); assay: PCA in HEK-293T cells, DEX 1 µM with or without RU486 1 µM (FIG. 1C)
From the text: EB, empty beads; C, solvent control. Images shown are representative of three biological replicates.
The resulting luminescence was normalized to the signal associated with cells treated with vehicle only.

[6] = biological target: T3, GR-Gluc2 (full-length glucocorticoid …); assay: PCA time course after DEX 1 µM in HEK-293T cells (FIG. 2A)
Protocol: (A) HEK-293T cells (6×10³) were seeded in 96-well plates. […] Luminescence of vehicle-treated cells was used for normalization. […] Images were processed using the Zeiss ZEN2011 software. […] Bars, 20 μm.

Row | Binder | binding result [1] | binding result [2] | also measured
1 | B1 | no binding | – | –
2 | B2 | no binding | binds | –
3 | B3 | – | – | binding result [3]: binds
4 | B4 | – | – | binding result [4]: binds
5 | B5 | no binding | – | binding result [5]: binds
6 | B6 | no binding | binds | binding result [6]: binds
